From publication PMC6811539, “Minute-scale persistence of a GPCR conformation state triggered by non-cognate G protein interactions primes signaling” (Nature Communications, 2019)

Target: β2-AR of the β2-AR-Sp SPASM sensor (human) (UniProt P07550)

critical concentration (CC) of unlabeled peptide for enhanced isoproterenol-stimulated ΔFRET of the β2-AR-Sp sensor in native membranes (peptide 100 nM to 100 μM): 1.5 µM
Substance: Sp (Gαs C terminus peptide)
